This is an account of results in article PMC4621513.

The test concerns the target APOBEC3G (A3G) protein, Q9HC16. Put plainly: AFM topographic imaging (protein volume); A3G mixed 2:1 with hybrid DNA substrate (418 bp duplex with 69 nt ssDNA overhang, deaminase specific or nonspecific) in 50 mM HEPES pH 7.5, 100 mM NaCl, 5 mM MgCl2, 1 mM DTT, 15 min at 37 °C; deposited on APS-mica, imaged in air; protein volume converted to mass; stoichiometry of A3G on the ssDNA. The settings on record: remark: other sources report otherwise.

B1: APOBEC3G (A3G) protein, Q9HC16 1-384 (enzyme)
chain: MKPHFRNTVERMYRDTFSYNFYNRPILSRRNTVWLCYEVKTKGPSRPPLDAKIFRGQVYSELKYHPEMRFFHWFSKWRKLHRDQEYEVTWYISWSPCTKCTRDMATFLAEDPKVTLTIFVARLYYFWDPDYQEALRSLCQKRDGPRATMKIMNYDEFQHCWSKFVYSQRELFEPWNNLPKYYILLHIMLGEILRHSMDPPTFTFNFNNEPWVRGRHETYLCYEVERMHNDTWVLLNQRRGFLCNQAPHKHGFLEGRHAELCFLDVIPFWKLDLDQDYRVTCFTSWSPCFSCAQEMAKFISKNKHVSLCIFTARIYDDQGRCQEGLRTLAEAGAKISIMTYSEFKHCWDTFVDHQGCPFQPWDGLDEHSQDLSGRLRAILQNQEN
The molecule B1 gave a stoichiometry N of 2.

What is called stoichiometry N is the number of molecules, sites or subunits per partner or assembly.
